Reference: PMC4477857 (The Journal of Cell Biology, 2015)

Molecular target: T1, purified recombinant STIL (human, UniProt Q15468 1-1287)
T1 sequence (looked up): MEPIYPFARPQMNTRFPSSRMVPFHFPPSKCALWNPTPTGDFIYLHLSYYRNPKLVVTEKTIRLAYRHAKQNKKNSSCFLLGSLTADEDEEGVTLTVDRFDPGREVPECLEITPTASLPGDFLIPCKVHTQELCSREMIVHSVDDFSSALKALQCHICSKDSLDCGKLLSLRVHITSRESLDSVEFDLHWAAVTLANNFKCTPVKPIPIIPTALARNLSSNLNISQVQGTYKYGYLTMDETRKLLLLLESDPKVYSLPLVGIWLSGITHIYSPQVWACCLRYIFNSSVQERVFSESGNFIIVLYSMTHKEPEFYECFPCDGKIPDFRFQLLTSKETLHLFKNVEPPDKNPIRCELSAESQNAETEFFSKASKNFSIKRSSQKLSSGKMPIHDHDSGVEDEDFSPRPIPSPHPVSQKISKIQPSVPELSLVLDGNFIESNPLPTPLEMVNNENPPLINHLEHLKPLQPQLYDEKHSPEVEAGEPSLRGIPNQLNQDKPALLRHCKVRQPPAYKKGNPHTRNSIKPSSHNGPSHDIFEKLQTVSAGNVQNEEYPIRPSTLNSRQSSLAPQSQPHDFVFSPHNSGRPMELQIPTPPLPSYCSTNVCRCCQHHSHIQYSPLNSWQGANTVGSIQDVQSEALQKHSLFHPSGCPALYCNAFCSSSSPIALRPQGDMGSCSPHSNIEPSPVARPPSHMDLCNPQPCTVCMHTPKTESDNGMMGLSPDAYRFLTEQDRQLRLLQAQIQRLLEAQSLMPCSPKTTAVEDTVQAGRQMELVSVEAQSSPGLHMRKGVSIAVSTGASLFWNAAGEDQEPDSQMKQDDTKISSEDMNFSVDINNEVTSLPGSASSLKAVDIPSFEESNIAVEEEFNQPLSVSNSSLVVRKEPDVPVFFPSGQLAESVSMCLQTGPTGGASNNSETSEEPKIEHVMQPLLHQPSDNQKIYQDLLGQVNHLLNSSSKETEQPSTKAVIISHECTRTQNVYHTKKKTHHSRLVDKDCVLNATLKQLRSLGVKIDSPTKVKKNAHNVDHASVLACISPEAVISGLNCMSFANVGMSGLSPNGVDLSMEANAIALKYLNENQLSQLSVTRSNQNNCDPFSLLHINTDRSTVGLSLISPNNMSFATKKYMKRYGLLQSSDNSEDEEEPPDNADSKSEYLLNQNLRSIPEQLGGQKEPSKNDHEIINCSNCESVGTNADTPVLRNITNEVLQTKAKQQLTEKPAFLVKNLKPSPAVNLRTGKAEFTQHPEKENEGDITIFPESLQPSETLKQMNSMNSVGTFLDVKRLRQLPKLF
Test: pull-down

B1: GST-hPlk4 (enzyme, human, UniProt O00444 1-970, looked up)
chain: MATCIGEKIEDFKVGNLLGKGSFAGVYRAESIHTGLEVAIKMIDKKAMYKAGMVQRVQNEVKIHCQLKHPSILELYNYFEDSNYVYLVLEMCHNGEMNRYLKNRVKPFSENEARHFMHQIITGMLYLHSHGILHRDLTLSNLLLTRNMNIKIADFGLATQLKMPHEKHYTLCGTPNYISPEIATRSAHGLESDVWSLGCMFYTLLIGRPPFDTDTVKNTLNKVVLADYEMPSFLSIEAKDLIHQLLRRNPADRLSLSSVLDHPFMSRNSSTKSKDLGTVEDSIDSGHATISTAITASSSTSISGSLFDKRRLLIGQPLPNKMTVFPKNKSSTDFSSSGDGNSFYTQWGNQETSNSGRGRVIQDAEERPHSRYLRRAYSSDRSGTSNSQSQAKTYTMERCHSAEMLSVSKRSGGGENEERYSPTDNNANIFNFFKEKTSSSSGSFERPDNNQALSNHLCPGKTPFPFADPTPQTETVQQWFGNLQINAHLRKTTEYDSISPNRDFQGHPDLQKDTSKNAWTDTKVKKNSDASDNAHSVKQQNTMKYMTALHSKPEIIQQECVFGSDPLSEQSKTRGMEPPWGYQNRTLRSITSPLVAHRLKPIRQKTKKAVVSILDSEEVCVELVKEYASQEYVKEVLQISSDGNTITIYYPNGGRGFPLADRPPSPTDNISRYSFDNLPEKYWRKYQYASRFVQLVRSKSPKITYFTRYAKCILMENSPGADFEVWFYDGVKIHKTEDFIQVIEKTGKSYTLKSESEVNSLKEEIKMYMDHANEGHRICLALESIISEEERKTRSAPFFPIIIGRKPGSTSSPKALSPPPSVDSNYPTRERASFNRMVMHSAASPTQAPILNPSMVTNEGLGLTTTASGTDISSNSLKDCLPKSAQLLKSVFVKNVGWATQLTSGAVWVQFNDGSQLVVQAGVSSISYTSPNGQTTRYGENEKLPDYIKQKLQCLSSILLMFSNPTPNFH
  binding result: binds
